Reference: patent publication US20250057968A1, “ANTI-DLL3 ANTIBODY AND PHARMACEUTICAL USE THEREOF, AND ANTIBODY-DRUG CONJUGATE CONTAINING ANTI-DLL3 ANTIBODY” (Jiangsu Hengrui Pharmaceuticals Co., Ltd., priority 2021, published 2025)

T1: Human DLL1 full-length protein on CHO-s cells (human, UniProt O00548 18-723)
T1 construct: also called human DLL1/CHO-s
T1 sequence: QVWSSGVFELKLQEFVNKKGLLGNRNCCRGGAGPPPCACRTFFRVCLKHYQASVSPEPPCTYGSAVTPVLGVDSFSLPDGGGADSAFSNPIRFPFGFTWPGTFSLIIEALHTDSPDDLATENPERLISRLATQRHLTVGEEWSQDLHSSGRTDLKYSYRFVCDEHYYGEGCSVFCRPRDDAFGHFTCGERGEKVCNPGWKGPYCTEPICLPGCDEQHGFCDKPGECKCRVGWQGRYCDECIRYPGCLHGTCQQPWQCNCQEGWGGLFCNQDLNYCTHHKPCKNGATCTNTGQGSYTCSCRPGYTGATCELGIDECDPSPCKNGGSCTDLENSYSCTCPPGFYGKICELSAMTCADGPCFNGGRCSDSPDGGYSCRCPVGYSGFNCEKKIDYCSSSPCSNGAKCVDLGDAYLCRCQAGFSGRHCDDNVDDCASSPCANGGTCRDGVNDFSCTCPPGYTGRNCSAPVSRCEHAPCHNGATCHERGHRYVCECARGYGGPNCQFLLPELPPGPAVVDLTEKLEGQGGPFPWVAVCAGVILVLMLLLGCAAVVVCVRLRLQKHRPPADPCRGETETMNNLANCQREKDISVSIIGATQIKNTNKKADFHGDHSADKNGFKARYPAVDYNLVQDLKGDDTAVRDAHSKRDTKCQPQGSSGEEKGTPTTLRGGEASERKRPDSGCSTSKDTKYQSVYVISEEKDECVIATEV

T2: Cynomolgus monkey DLL3 full-length protein on CHO-s cells (cynomolgus monkey, UniProt Q9NYJ7 27-618 (human entry))
T2 construct: also called cynoDLL3/CHO-s
T2 chain: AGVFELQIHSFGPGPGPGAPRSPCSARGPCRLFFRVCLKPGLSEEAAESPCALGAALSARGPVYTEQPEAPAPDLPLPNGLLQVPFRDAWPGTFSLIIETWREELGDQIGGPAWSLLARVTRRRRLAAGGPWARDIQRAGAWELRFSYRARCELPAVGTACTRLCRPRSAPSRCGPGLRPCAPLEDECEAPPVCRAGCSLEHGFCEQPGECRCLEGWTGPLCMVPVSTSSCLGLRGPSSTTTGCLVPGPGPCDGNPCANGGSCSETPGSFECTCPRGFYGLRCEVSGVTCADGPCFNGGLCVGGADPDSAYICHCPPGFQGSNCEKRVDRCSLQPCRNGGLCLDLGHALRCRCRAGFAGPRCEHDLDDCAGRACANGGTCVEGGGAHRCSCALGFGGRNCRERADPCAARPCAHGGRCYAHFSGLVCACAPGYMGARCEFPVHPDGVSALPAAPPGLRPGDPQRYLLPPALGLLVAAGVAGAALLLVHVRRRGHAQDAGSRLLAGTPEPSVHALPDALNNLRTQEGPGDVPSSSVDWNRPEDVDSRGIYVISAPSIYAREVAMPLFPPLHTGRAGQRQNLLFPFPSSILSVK


Tests used:
[1] = molecular target: T1, Human DLL1 full-length protein on CHO-s …; test: FACS on human DLL1/CHO-s cells
Experimental: Stably transfected human DLL1/CHO-s and human DLL4/CHO-s cells were suspended at 1×10⁶/mL in FACS buffer (containing 1% BSA and pH 7.4 PBS), and the cell suspensions were added to a 96-well round-bottom plate (Corning, 3795) at 100 µL/well. The plate was centrifuged at 300 g for 5 min, and the supernatant was removed. Test antibodies were added at 100 μL/well, and the plate was incubated in the dark in a refrigerator at 4° C. for 1 h. After 3 washes by centrifugation at 300 g, working concentrations of PE F(ab′)2-goat anti-human IgG Fc secondary antibody (invitrogen, H10104) were added. The plate was incubated in the dark in a refrigerator at 4° C. for 40 min. After 3 washes by centrifugation at 300 g, the geometric mean fluorescence intensity was measured on an Invitrogen flow cytometer.

[2] = molecular target: T2, Cynomolgus monkey DLL3 full-length …; test: FACS on cynoDLL3/CHO-s cells
Experimental: Cells of the DLL3-expressing small cell lung cancer cell lines H1184 (ATCC, Cat. No. CRL-5858), DLL3/H82, cynoDLL3/CHO-s, and RatDLL3/CHO-s were suspended at 1×10^6/mL in FACS buffer (1% BSA+pH 7.4 PBS), and the cell suspensions were added to a 96-well round-bottom plate (Corning, 3795) at 100 μL/well. The plate was centrifuged at 300 g for 5 min, and the supernatant was removed. Different concentrations of test antibodies were added at 100 μL/well. The plate was incubated in the dark in a refrigerator at 4° C. for 1 h. After 3 washes by centrifugation at 300 g, working concentrations of APC anti-human IgG Fc (BioLegend, 410712) or PE F(ab′)2-goat anti-human IgG (invitrogen, H10104) were added. The plate was incubated in the dark in a refrigerator at 4° C. for 40 min. After 3 washes by centrifugation at 300 g, the geometric mean fluorescence intensity was measured on an Invitrogen flow cytometer, and the EC50 values of the antibodies in binding to DLL3-expressing cells were calculated.

[3] = molecular target: T3, hDLL3(ECD)-strep twin, biotinylated (human, UniProt Q9NYJ7 27-492, biotinylated (site not stated)); test: ELISA, biotinylated antigen on streptavidin plate
T3 construct: also called Biotinylated DLL3 antigen; Biotinylated DLL3-Strep
Experimental: Streptavidin (abcam, ab136200, 1 μg/mL) was plated at 100 μL/well, and the plate was incubated overnight at 4° C. The plate was washed 3 times with 250 μL of PBST solution (PBS containing 0.1% Tween 20) per well. The plate was blocked with 250 μL of 5% milk per well at 37° C. for 2 h. The plate was washed 3 times with 250 μL of PBST solution per well. Biotinylated DLL3 antigen (1 μg/mL) (SEQ ID NO: 9) was added, and the plate was incubated at 37° C. for 1 h. The plate was washed 3 times with 250 μL of PBST solution per well. […] The plate was washed 6 times with 250 μL of PBST solution per well. […] The plate was washed 6 times with 250 μL of PBST solution per well. TMB (KPL, 5120-0077) substrate solution was added at 100 μL/well, and color development was allowed at room temperature for 5-10 min. 1 M H₂SO₄ was added at 100 μL/well to stop the color development, and microplate reader (Molecular Devices, VERSA max) readings at 450 nm were taken.

[4] = molecular target: cynomolgus monkey DLL3 (KACTUS, DLL-RM103) (cynomolgus monkey); test: SPR (Biacore 8K), antibody captured on Protein A chip, 1:1 fit

| Binder | binding result [1] | EC50 [2] [nM] | Emax [2] | EC50 [3] [nM] | Kd [4] [nM] |
| --- | --- | --- | --- | --- | --- |
| Hu6 (antibody, human IgG1, kappa, V domains shown, also called hAb6L4H12) VH: EVQLVQSGSELKKPGASVKVSCKASGYTFTDYYMNWVRQAPGQGLEWMGIINPYSGVTIYNHKFKGRFALSVDKSSNTAYLQISSLKAEDTAVYYCARQDSLLDYAMDYWGQGTTVTVSS VL: DIQMTQSPSSLSASVGDRVTITCHASQGISGNMGWLQQKPGKAPKGLIYHGANLEDGVPSRFSGSGSGADYTLTISSLQPEDFADYYCVQYAQFPYTFGGGTKVEIKR | no binding | 0.32 | 1760 | 0.04 | 1.31 |
| Hu100 (antibody, human IgG1, kappa, V domains shown, also called hAb100L1H1) VH: EVQLVESGGGLVKPGGSLRLSCAASGFTFSDSGMHWIRQAPGKGLEWVSYISSGSSTIHYADTVKGRFTISRDNAKNSLYLQMNSLRAEDTAVYYCASPLYYYGRSYNAVAYWGQGTTVTVSS VL: DIQMTQSPSSLSASVGDRVTITCHASQNINVWLSWYQQKPGKVPKLLIYKASDLHTGVPSRFSGSGSGTDFTLTISSLQPEDVATYYCQQGQSYPLTFGGGTKVEIKR | no binding | 0.55 | 2080 | 0.05 | 1.11 |
